Molecular target: T1, 15-amino-acid peptide corresponding to the epitope in LRG1 (human)
T1 construct: leucine-rich alpha-2-glycoprotein 1 (LRG1), human; Gln5Pep is Gln225 of LRG1
T1 chain: GNKLQVLGKDLLLPQ
Assay: crystal structure; co-crystallization at MagaFab:peptide molar ratios of 1:2 and 1:5, MagaFab 12 mg/ml, 0.2 M NaCl, 0.1 M bis-Tris pH 5.5, 25%(w/v) PEG 3350; two Fab and two peptide molecules per asymmetric unit
Details: both partners purified

B1: Magacizumab Fab fragment (Fab, V domains shown)
VH: QVQLVQSGAEVKKPGSSVKVSCKASGYTFSGYWMNWVRQAPGQGLEWIGQIYPGDGDTNYNGKFKGRVTITADKSTSTAYMELSSLRSEDTAVYYCARSITTVVLDYWGQGTTVTVSS
VL: DIVLTQSPDSLAVSLGERATISCRASQSVSTSGYSFMHWYQQKPGQPPKLLIKYASNLESGVPARFSGSGSGTDFTLTISSLQPEDFATYYCQHSWEMPLTFGQGTKLEIK
notes: heavy (VH) chain of MagaFab is chain B (second copy: chain D) of the deposited structure PDB 7q4q; light (VL) chain of MagaFab is chain A (second copy: chain C) of the deposited structure PDB 7q4q; Fab of a humanized IgG4 derived from the mouse monoclonal antibody 15C4; Observed mass of the Fab 47 461 Da, computed 47 412 Da; also called MagaFab; source: Magacizumab: CHO cell-based expression …
binding result: binds

From publication PMC9159282, “Structural basis of human LRG1 recognition by Magacizumab, a humanized monoclonal antibody with therapeutic potential” (Acta Crystallographica. Section D, Structural Biology, 2022)
